B1: SNAP(C): mRNA Display molecule of SNAP tag C-terminal fragment with C-terminal GS linker (SEQ ID NO: 43) (conjugate)
chain: MVDESFTRQVLWKLLKVVKFGEVISYSHLAALAGNPAATAAVKTALSGNPVPILIPCHRVVQGDLDVGGYEGGLAVKEWLLAHEGHRLGKPGLGPAGGSAFKLEVNGSGSGSGSGSKK
modifications: mRNA display linkage; SNAP (C)-GS5
B2: SNAP(N): mRNA Display molecule of SNAP tag N-terminal fragment with C-terminal GS linker (SEQ ID NO: 42) (conjugate)
chain: MDKDCEMKRTTLDSPLGKLELSGCEQGLHRIIFLGKGTSAADAVEVPAPAAVLGGPEPLMQATAWLNAYFHQPEAIEEFPVPALHHPVFQQGSGSGSGSGSKK
modifications: mRNA display linkage; splitSNAP (N)-GS5
B3: Epep-splitUb (N): mRNA Display molecule of splitUb(N) with negatively charged E-peptide (SEQ ID NO: 56) (conjugate)
chain: MKVSALENEVSALEKEVSVLEKEVSALEKEVRALEKGSGSGSGSMQIFVKTLTGKTATLEVEPSDTIENVKAKIQDKEGIPGSGSGSGSKK
modifications: mRNA display linkage; Epep-splitUb(N)-GS4
B4: SNAP(full): mRNA Display molecule of full-length SNAP tag with C-terminal GS linker (SEQ ID NO: 44) (conjugate)
chain: MDKDCEMKRTTLDSPLGKLELSGCEQGLHRIIFLGKGTSAADAVEVPAPAAVLGGPEPLMQATAWLNAYFHQPEAIEEFPVPALHHPVFQQESFTRQVLWKLLKVVKFGEVISYSHLAALAGNPAATAAVKTALSGNPVPILIPCHRVVQGDLDVGGYEGGLAVKEWLLAHEGHRLGKPGLGPAGGSAFKLEVNGSGSGSGSGSKK
modifications: mRNA display linkage; SNAP (full)-GS5
B5: Kpep-splitUb (N): mRNA Display molecule of splitUb(N) with positively charged K-peptide (SEQ ID NO: 55) (conjugate)
chain: MKVSALKENVSALKEKVSALTEKVSALKEKVSALKEGSGSGSGSMQIFVKTLTGKTATLEVEPSDTIENVKAKIQDKEGIPGSGSGSGSKK
modifications: mRNA display linkage; Kpep-splitUb(N)-GS4

What was measured:
[1] = Complementation assay of splitSNAP-tag using mRNA display (reaction with SNAP-Biotin, streptavidin pull-down, qPCR); assay type: biochemical; details: for Recovery rate (%): apparent recovery rate corrected with display efficiency; for Recovered nucleic acid amount (molecules): reaction with SNAP-Biotin 37° C. 30 minutes, streptavidin pull-down, qPCR; for Apparent recovery rate (%): recovered / theoretical value of added nucleic acid amount
Experimental: To this solution, ¼ amount of a PBS solution containing 5 mM DTT, 2500 nM SNAP-Biotin (New England BioLabs, Inc.) was added, and the enzymatic reaction was performed at 37° C. for 30 minutes.

[2] = test system: anti-ubiquitin antibody fixed bead; test: Complementation assay of splitUbiquitin with Kpep/Epep charged peptides using mRNA display; assay type: binding; details: for Recovered nucleic acid amount (molecules): Display molecules 0.2 μM each (pairs) or 0.4 μM (alone), anti-ubiquitin antibody beads, qPCR; for Recovery rate (%): apparent recovery rate corrected with display efficiency; for Apparent recovery rate (%): recovered/input nucleic acid amount
Experimental: Next, Display molecules composed of constructs (SEQ ID NO: 55 (P-11) to SEQ ID NO: 57 (P-13)) in which splitUb(N) and splitUb(C) each were added with a charged peptide sequence (K-peptide containing an amino acid having a positive charge) (sometimes referred to as “Kpep”) or E-peptide containing an amino acid having a negative charge (“Epep”)) were prepared. When the added peptides are attracted to each other by charges, splitUbs become in proximity to each other and recovered by an anti-ubiquitin antibody. Conversely, when the added peptides are repelled to each other by charges, splitUbs are not recovered. Once this is validated, the complexation of molecules added to splitUbs can be evaluated with the recovery rate through ubiquitin and anti-ubiquitin antibodies.
Reactions were made under the same conditions as in condition 1, except that, in condition 2, the Display molecule of Epep-splitUb(N) and the Display molecule of Epep-splitUb(C) were added at 0.2 μM; in condition 3, the Display molecule of Kpep-splitUb(N) was added at 0.4 μM; in condition 4, the Display molecule of Epep-splitUb(N) was added at 0.4 μM; and in condition 5, the Display molecule of Epep-splitUb(C) was added at 0.4 μM.

| Molecule | Recovery rate (%) [1] [%] | Recovered nucleic acid amount (molecules) [1] [molecules] | Apparent recovery rate (%) [1] [%] | Recovered nucleic acid amount (molecules) [2] [molecules] | Recovery rate (%) [2] [%] | Apparent recovery rate (%) [2] [%] | recovery rate higher than other controls ([1]; in the presence of SNAP-Biotin) |
| --- | --- | --- | --- | --- | --- | --- | --- |
| B1 | 0.035 | 6.76E+06 | 0.007 |  |  |  |  |
| B2 | 0.097 | 6.26E+07 | 0.062 |  |  |  |  |
| B3 |  |  |  | 3.77E+05 | 0.0004 | 0.0001 |  |
| B4 | 14.364 | 4.78E+09 | 4.740 |  |  |  | at least 50 times |
| B5 |  |  |  | 2.28E+06 | 0.0008 | 0.0005 |  |

From patent publication US20240069033A1, “METHOD FOR SCREENING FOR CANDIDATE MOLECULE CAPABLE OF FORMING COMPLEX IN CONJUNCTION WITH PLURALITY OF TARGET MOLECULES” (Chugai Seiyaku Kabushiki Kaisha, priority 2020, published 2024)
